{
  "source": "patent US9872921B2",
  "about": "“DE-N-acetyl sialic acid antigens, antibodies thereto, and methods of use in cancer therapy” (priority 2004, dated 2018)",
  "molecules": {"B1": {"name": "SEAM 12: anti-N-Pr NmB PS murine mAb (IgG2a) (antibody, V domains shown)", "VH": "QVKLEQSGGGLVRPGNSLKLSCVTSGFTFINYRMHWLRQPPGKRLEWIAVITDNSDNYVVNYAESVKGRFAISRDDSKSSVYLEMNRLREEDTATYFCSRSRRSFFDYWGQGTTLTVS", "VL": "DIVMTQTTVIMSASPGEKVTMTCSASSSVTYMHWYQQKSRTSPKLWIYDTSKLASGVPGRFSGSGSGNSYALTISSMEPEDVATYYCFQGSGYPLTFGAGTKLGLKRA", "modifications": "mouse"}, "B2": {"name": "SEAM 35: anti-N-Pr NmB PS murine mAb (IgG2a) (antibody, V domains shown)", "VH": "EVKLEESGGGLVQPGGSLSLSCAASGFTFTDYYLSWVRQPPGKALEWLGFIRNTANGYTTEYSASVKGRFTIARDNSQSILTLQMNALRAEDSATYYCARWSRRAMDYWGQGTSVTVS", "VL": "DIVMTQSPISMSMSLGERVTLSCKASENVGTYVSWYQQKPEQSPKLLISGASNRYTGVPDRFTGSGSATDFTLTISSVQAEDLADYHCGQSYNYPYTFGGGTKLEIKRA", "modifications": "mouse"}},
  "key": {"SK-MEL 28 cells": {"test_system": "SK-MEL 28 cells", "test": "Cell cycle analysis by propidium iodide staining and flow cytometry", "format": "cell-based, human", "settings": "100 nM, 48 h", "protocol": "To further assess the affect of SEAM 3 mAb on cell growth, the stage of the cell cycle after treatment with SEAM 3 was determined. In this experiment, the cells were stained with the fluorescent DNA binding dye propidium iodide to characterize cell populations in various stages of the cell cycle and the effects of adding control antibodies, nocodazole (a drug that arrest the cells in mitosis) and SEAM 3.\nApproximately 10^5 SK-MEL 28 cells were plated on a 96-well tissue culture plate and allowed to adhere. After 24 h the medium was replaced with one that had either antibody or drug and incubated for a further 48 h. Cells were spun (to collect any cells that may have detached), and fixed in 70% ice-cold methanol (added drop wise) for at least 30 minutes at 4° C. The cells were washed twice with PBS, and to ensure that only DNA was stained, the fixed cells were treated with ribonuclease I (100 μg/ml, source) for 30 minutes at 37° C. Propidium iodide (50 μg/ml) was added and samples were analyzed using a Guava EasyCyte flow cytometer."}, "SEAM 3": {"test_system": "SEAM 3", "test": "Inhibition ELISA of SEAM 3 binding to plate-coated N-Pr NmB PS-dodecylamine", "parameters": "species or system murine", "settings": "dilution required to decrease absorbance at 405 nm by 50%", "protocol": "The ability of colominic acid and N-Pr NmB PS to inhibit binding of SEAM 3 to in an ELISA was compared to sialidase A-treated colominic acid and N-Pr NmB PS prepared as described above. The wells of microtiter plates (Immulon 2; Dynatech Laboratories, Inc.) were coated with N-Pr NmB PS-dodecylamine (prepared as described in Example 1) in phosphate buffered saline (PBS; pH 7.4). The plates were incubated overnight at 4° C. After washing three times with PBS, the wells were filled with 200 μl of blocking buffer (PBS containing 1% bovine serum albumin [BSA, Sigma] and 0.1% sodium azide; [pH 7.4]) and then incubated for 30-60 min at room temperature to block nonspecific binding sites. The plates were washed three times with PBS buffer. Inhibitors were serially diluted in blocking buffer on the plate in total final volume of 50 μl. SEAM 3 diluted in blocking buffer to a concentration that produced an OD405 nm of 0.5 when developed with substrate was added to the wells in a volume of 50 μl. The plates were covered and incubated overnight at 4° C. […] The absorbance at 405 nm after 30 minutes incubation at ambient temperature was measured using a BioRad Model 550 microtiter plate reader. The relative activity of each sample was compared by determining the dilution required to decrease the absorbance at 405 nm by 50% of the absorbance observed in wells containing SEAM 3 but no inhibitor."}, "NmB strain M7": {"test_system": "NmB strain M7", "test": "Fluorescence microscopy of SEAM 12 binding to capsule PS on NmB strain M7 grown with N-acyl mannosamine supplements", "parameters": "species or system Neisseria meningitidis", "source_text": "The trihaloacetylated mannosamine was incorporated into NmB PS by inoculating colonies of NmB strain M7 grown overnight at 37 degrees C. in 5% carbon dioxide on a freshly streaked chocolate agar plate to an OD620 nm of 0.1 in Muller-Hinton broth supplemented with 5 millimolar N-acyl mannosamine For example, N-acetyl, -trichloroacetyl, -trifluoroacetyl mannosamine. Stain M7 contains a transposon the interrupts the gene encoding N-acetyl-D-glucosamine-6-phosphate 2 epimerase (Swartley et al. 1994, J. Bact. 176:1530; Swartley et al. 1996, J. Bact. 178:4052). As a result, the bacteria cannot synthesize capsule PS unless the growth media was supplemented with N-acetyl mannosamine Therefore, the N-acyl content of the capsule PS synthesized in this system can be determined by the N-acyl or mixture of N-acyl mannosamine provided in the growth media. The bacteria were grown at 37 degrees C. […]).\nThere is no binding of SEAM 12 to M7 without N-acyl mannosamine or with N-trichloroacetyl mannosamine supplement (FIG. 37, panels B and C). […] However, SEAM 12 does bind to the capsule PS containing N-trifluoroacetyl groups (FIG. 37, panel D, shaded gray in the figure) since the trifluoromethyl group is nearly the same size as the methyl group of the N-acetyl derivative."}, "[1]": {"test_system": "polysialic acid antigens expressed by the human neuronal cell line CHP-134", "settings": "cited from earlier work"}},
  "data": [
    {"molecule": "COC(=O)Nc1nc2cc(C(=O)c3cccs3)ccc2[nH]1", "note": "[nocodazole, reference compound]", "values": [
      {"measurement": "cells arrested in G2/M phase", "setting": "SK-MEL 28 cells", "value": "approximately 50%"}
    ]},
    {"molecule": "poly alpha (2→8) N-acetyl neuraminic acid [colominic acid]", "values": [
      {"measurement": "activity for binding to SEAM 3, fold less than N-Pr NmB PS", "setting": "SEAM 3", "value": "approximately 200 fold"}
    ]},
    {"molecule": "B1", "values": [
      {"measurement": "SEAM 12 binding to capsule PS", "setting": "NmB strain M7; capsule PS containing N-trifluoroacetyl groups", "value": "does bind"},
      {"measurement": "SEAM 12 binding to M7", "setting": "NmB strain M7; growth media supplemented with N-acetyl mannosamine", "value": "binding is indicated by the presence of red fluorescence"},
      {"measurement": "SEAM 12 binding to M7", "setting": "NmB strain M7; with N-trichloroacetyl mannosamine supplement", "value": "no binding"},
      {"measurement": "SEAM 12 binding to M7", "setting": "NmB strain M7; without N-acyl mannosamine", "value": "no binding"}
    ]},
    {"molecule": "B2", "values": [
      {"measurement": "cross-reactivity with polysialic acid antigens expressed by CHP-134", "setting": "[1]", "value": "greater cross-reactivity"}
    ]}
  ]
}
